Experimental data taken from publication PMC2754721 (Biochemistry, 2009).

Target: the molecule itself
Experiment: crystal structure

B1: D402N nitroalkane oxidase (enzyme)
chain: MVDFKLSPSQLEARRHAQAFANTVLTKASAEYSTQKDQLSRFQATRPFYREAVRHGLIKAQVPIPLGGTMESLVHESIILEELFAVEPATSITIVATALGLMPVILCDSPSLQEKFLKPFISGEGEPLASLMHSEPNGTANWLQKGGPGLQTTARKVGNEWVISGEKLWPSNSGGWDYKGADLACVVCRVSDDPSKPQDPNVDPATQIAVLLVTRETIANNKKDAYQILGEPELAGHITTSGPHTRFTEFHVPHENLLCTPGLKAQGLVETAFAMSAALVGAMAIGTARAAFEEALVFAKSDTRGGSKHIIEHQSVADKLIDCKIRLETSRLLVWKAVTTLEDEALEWKVKLEMAMQTKIYTTDVAVECVIDAMKAVGMKSYAKDMSFPRLLNEVMCYPLFNGGNIGLRRRQMQRVMALEDYEPWAATYGSSKVDKSRL
In the case of B1, the “stoichiometry N” value is reported as 4 subunits.

B2: S276A nitroalkane oxidase (enzyme)
chain: MVDFKLSPSQLEARRHAQAFANTVLTKASAEYSTQKDQLSRFQATRPFYREAVRHGLIKAQVPIPLGGTMESLVHESIILEELFAVEPATSITIVATALGLMPVILCDSPSLQEKFLKPFISGEGEPLASLMHSEPNGTANWLQKGGPGLQTTARKVGNEWVISGEKLWPSNSGGWDYKGADLACVVCRVSDDPSKPQDPNVDPATQIAVLLVTRETIANNKKDAYQILGEPELAGHITTSGPHTRFTEFHVPHENLLCTPGLKAQGLVETAFAMAAALVGAMAIGTARAAFEEALVFAKSDTRGGSKHIIEHQSVADKLIDCKIRLETSRLLVWKAVTTLEDEALEWKVKLEMAMQTKIYTTDVAVECVIDAMKAVGMKSYAKDMSFPRLLNEVMCYPLFDGGNIGLRRRQMQRVMALEDYEPWAATYGSSKVDKSRL
For B2, the “stoichiometry N” value was 4 subunits.
